Results taken from US7381537B2, “Use of inhibitors of glutaminyl cyclases for treatment and prevention of disease” (Probiodrug AG, priority 2003, dated 2008).

Assays:
Assay in all cases: purified protein, by the assay type;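 note: initial rates read in microplates at 30 °C, with enzyme activity quantified against an ammonia calibration curve recorded under the same assay conditions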
[1] = substrate: CC(C)C[C@H](NC(=O)[C@H](CCCCN)NC(=O)[C@H](CCC(N)=O)NC(=O)[C@H](Cc1c[nH]cn1)NC(=O)[C@H](Cc1c[nH]cn1)NC(=O)[C@@H](NC(=O)[C@H](CCC(=O)O)NC(=O)[C@H](Cc1ccc(O)cc1)NC(=O)CNC(=O)[C@H](CO)NC(=O)[C@H](CC(=O)O)NC(=O)[C@H](Cc1c[nH]cn1)NC(=O)[C@H](CCCNC(=N)N)NC(=O)[C@H](Cc1ccccc1)NC(=O)[C@@H](N)CCC(N)=O)C(C)C)C(=O)N[C@H](C(=O)N[C@@H](Cc1ccccc1)C(=O)N[C@@H](Cc1ccccc1)C(=O)N[C@@H](C)C(N)=O)C(C)C; conditions: other: recombinant human QC, buffer solution containing 1% DMSO; pH 8.8
Procedure: (§1) The initial velocities were evaluated and the enzymatic activity was determined from a standard curve of ammonia under assay conditions. All samples were measured at 30° C., using either the [sequence]luor Plus or the Sunrise (both from TECAN) reader for microplates. Kinetic data was evaluated using GraFit software.

[2] = substrate: CC(C)C[C@H](NC(=O)[C@H](CCCNC(=N)N)NC(=O)[C@H](CCCCN)NC(=O)[C@H](Cc1ccccc1)NC(=O)C[C@@H](N)CCC(N)=O)C(=O)N[C@@H](C)C(N)=O; conditions: other: text b245; pH 8.8
Procedure: as §1

[3] = substrate: C[C@H](NC(=O)[C@H](C)NC(=O)[C@H](C)NC(=O)[C@H](C)NC(=O)[C@@H](N)CCC(N)=O)C(N)=O; conditions: other: Table 6, influence of substrate length; pH 8.8
Procedure: as §1

[4] = substrate: C[C@H](NC(=O)[C@H](C)NC(=O)[C@H](CO)NC(=O)[C@H](C)NC(=O)[C@H](C)NC(=O)[C@@H](N)CCC(N)=O)C(N)=O; conditions: other: Table 6, influence of substrate length; pH 8.8
Procedure: as §1

[5] = substrate: N=C(N)NCCC[C@H](NC(=O)[C@H](Cc1ccccc1)NC(=O)[C@@H](N)CCC(N)=O)C(=O)N[C@@H](Cc1c[nH]cn1)C(=O)N[C@@H](CC(=O)O)C(=O)N[C@@H](CO)C(=O)NCC(=O)N[C@@H](Cc1ccc(O)cc1)C(=O)N[C@@H](CCC(=O)O)C(N)=O; conditions: other: recombinant human QC, buffer solution containing 1% DMSO; pH 8.8
Procedure: as §1

B1: human QC (Homo sapiens) (protein)
chain: VSPSASAWPEEKNYHQPAILNSSALRQIAEGTSISEMWQNDLQPLLIERYPGSPGSYAARQHIMQRIQRLQADWVLEIDTFLSQTPYGYRSFSNIISTLNPTAKRHLVLACHYDSKYFSHWNNRVFVGATDSAVPCAMMLELARALDKKLLSLKTVSDSKPDLSLQLIFFDGEEAFLHWSPQDSLYGSRHLAAKMASTPHPPGARGTSQLHGMDLLVLLDLIGAPNPTFPNFFPNSARWFERLQAIEHELHELGLLKDHSLEGRYFQNYSYGGVIQDDHIPFLRRGVPVLHLIPSPFPEVWHTMDDNEENLDESTIDNLNKILQVFVLEYLHL
[1]
  Km: 162 ± 12 µM
  kcat: 62 ± 3 s⁻¹
  kcat/Km: 383000 ± 10000 M⁻¹ s⁻¹
[2]
  Km: 2500 ± 200 µM
  kcat: 3.5 ± 0.1 s⁻¹
  kcat/Km: 1300 ± 100 M⁻¹ s⁻¹
[3]
  Km: 65 ± 3 µM
  kcat: 60.5 ± 0.7 s⁻¹
  kcat/Km: 1.174e+06 ± 43000 M⁻¹ s⁻¹
[4]
  Km: 79 ± 6 µM
  kcat: 55.3 ± 1.6 s⁻¹
  kcat/Km: 700000 ± 33000 M⁻¹ s⁻¹
[5]
  Km: 155 ± 4 µM
  kcat: 41.4 ± 0.4 s⁻¹
  kcat/Km: 267000 ± 4000 M⁻¹ s⁻¹
